5 molecules from patent US20130280763A1 (IMBA INSTITUT FUR MOLEKULARE BIOTECHNOLOGIE, published 2013) can be followed below.

Sequences and labels used below:
B1: FLAG-tagged HSPC117 (enzyme, human, UniProt Q9Y3I0 1-505, looked up)
chain: MSRSYNDELQFLEKINKNCWRIKKGFVPNMQVEGVFYVNDALEKLMFEELRNACRGGGVGGFLPAMKQIGNVAALPGIVHRSIGLPDVHSGYGFAIGNMAAFDMNDPEAVVSPGGVGFDINCGVRLLRTNLDESDVQPVKEQLAQAMFDHIPVGVGSKGVIPMNAKDLEEALEMGVDWSLREGYAWAEDKEHCEEYGRMLQADPNKVSARAKKRGLPQLGTLGAGNHYAEIQVVDEIFNEYAAKKMGIDHKGQVCVMIHSGSRGLGHQVATDALVAMEKAMKRDKIIVNDRQLACARIASPEGQDYLKGMAAAGNYAWVNRSSMTFLTRQAFAKVFNTTPDDLDLHVIYDVSHNIAKVEQHVVDGKERTLLVHRKGSTRAFPPHHPLIAVDYQLTGQPVLIGGTMGTCSYVLTGTEQGMTETFGTTCHGAGRALSRAKSRRNLDFQDVLDKLADMGIAIRVASPKLVMEEAPESYKNVTDVVNTCHDAGISKKAIKLRPIAVIKG
notes: also called FLAG-HSPC117; FLAG-RTCB; not shown: FLAG tag
B4: CGI-99 (other, human, UniProt Q9Y224 1-244, looked up)
chain: MFRRKLTALDYHNPAGFNCKDETEFRNFIVWLEDQKIRHYKIEDRGNLRNIHSSDWPKFFEKYLRDVNCPFKIQDRQEAIDWLLGLAVRLEYGDNAEKYKDLVPDNSKTADNATKNAEPLINLDVNNPDFKAGVMALANLLQIQRHDDYLVMLKAIRILVQERLTQDAVAKANQTKEGLPVALDKHILGFDTGDAVLNEAAQILRLLHIEELRELQTKINEAIVAVQAIIADPKTDHRLGKVGR
notes: Endogenous protein that co-purifies from cell extract

Series [1] deals with T1, recombinant Archease D39A.
T1 chain: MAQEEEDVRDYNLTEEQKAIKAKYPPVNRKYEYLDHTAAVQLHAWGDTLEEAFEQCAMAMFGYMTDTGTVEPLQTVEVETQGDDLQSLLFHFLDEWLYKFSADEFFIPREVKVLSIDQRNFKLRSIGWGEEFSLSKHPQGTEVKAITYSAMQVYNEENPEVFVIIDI

Series [2] addresses T2, recombinant Archease K144A.
T2 chain: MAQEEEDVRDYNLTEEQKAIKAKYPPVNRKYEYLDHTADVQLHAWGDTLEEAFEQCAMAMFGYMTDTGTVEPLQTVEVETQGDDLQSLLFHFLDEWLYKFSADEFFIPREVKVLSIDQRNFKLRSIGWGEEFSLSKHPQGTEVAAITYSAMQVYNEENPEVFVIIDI

Series [3] deals with T3, recombinant wild-type Archease.
T3 chain: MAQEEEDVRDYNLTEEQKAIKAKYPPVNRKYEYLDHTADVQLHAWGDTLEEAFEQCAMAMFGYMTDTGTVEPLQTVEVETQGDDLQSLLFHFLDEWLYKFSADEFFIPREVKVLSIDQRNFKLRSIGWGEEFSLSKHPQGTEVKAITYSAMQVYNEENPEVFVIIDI

For series [4], the target named is T4, DDX1 (human, UniProt Q92499 1-740).
T4 construct: Endogenous protein that co-purifies from cell extract
T4 sequence (looked up): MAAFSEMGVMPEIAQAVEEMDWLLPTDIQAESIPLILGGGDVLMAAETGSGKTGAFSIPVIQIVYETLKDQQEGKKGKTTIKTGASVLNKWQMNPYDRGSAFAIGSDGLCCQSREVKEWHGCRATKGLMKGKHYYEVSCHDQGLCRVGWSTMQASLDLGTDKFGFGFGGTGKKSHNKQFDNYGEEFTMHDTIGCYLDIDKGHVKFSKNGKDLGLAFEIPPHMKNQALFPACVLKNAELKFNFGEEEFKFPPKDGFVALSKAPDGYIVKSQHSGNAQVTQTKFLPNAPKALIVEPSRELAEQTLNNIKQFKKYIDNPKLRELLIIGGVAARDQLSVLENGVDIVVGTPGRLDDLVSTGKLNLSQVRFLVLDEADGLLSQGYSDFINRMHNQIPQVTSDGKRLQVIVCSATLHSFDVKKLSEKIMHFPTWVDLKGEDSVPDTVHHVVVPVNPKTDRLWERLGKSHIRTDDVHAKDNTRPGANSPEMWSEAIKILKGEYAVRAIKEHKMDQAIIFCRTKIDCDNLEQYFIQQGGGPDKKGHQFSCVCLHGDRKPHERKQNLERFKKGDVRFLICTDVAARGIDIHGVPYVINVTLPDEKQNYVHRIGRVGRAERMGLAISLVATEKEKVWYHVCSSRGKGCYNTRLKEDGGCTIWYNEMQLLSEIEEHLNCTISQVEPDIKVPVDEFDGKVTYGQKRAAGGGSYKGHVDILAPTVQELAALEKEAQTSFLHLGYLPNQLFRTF
The experiment in a line: FLAG affinity purification, co-purifying proteins on a gel (FIG. 1A).

A further series concerns the target T5, HSPC117, Q9Y3I0.
T5 chain: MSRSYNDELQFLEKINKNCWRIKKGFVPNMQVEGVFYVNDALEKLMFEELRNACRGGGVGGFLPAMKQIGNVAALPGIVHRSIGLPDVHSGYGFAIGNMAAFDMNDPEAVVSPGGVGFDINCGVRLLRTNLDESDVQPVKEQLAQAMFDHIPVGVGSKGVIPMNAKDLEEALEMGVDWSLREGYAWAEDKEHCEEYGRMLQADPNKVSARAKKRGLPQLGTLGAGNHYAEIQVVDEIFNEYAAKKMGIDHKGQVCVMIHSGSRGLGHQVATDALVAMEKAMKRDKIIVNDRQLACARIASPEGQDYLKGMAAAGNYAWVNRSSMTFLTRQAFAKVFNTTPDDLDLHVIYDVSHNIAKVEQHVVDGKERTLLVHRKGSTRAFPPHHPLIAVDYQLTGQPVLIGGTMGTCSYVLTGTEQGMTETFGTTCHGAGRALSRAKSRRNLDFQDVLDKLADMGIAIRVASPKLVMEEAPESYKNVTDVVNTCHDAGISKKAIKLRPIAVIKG

In series [5] the target is T4, DDX1. The experiment in a line: FLAG affinity purification at 150 mM NaCl, Coomassie stained gel (FIG. 4A). The method, then:
(§1) A) Coomassie Blue stained preparations of FLAG-tagged Archease and HSPC117 affinity purified at 150 mM NaCl. B) RNA ligase activity assay of FLAG-HSPC117 and FLAG-Archease using pre-cleaved tRNA substrates. Extracts of HEK 293 cells were used as a negative control. * Indicates unspecific products.
(§2) Stable cell lines expressing a FLAG-tagged version of Archease and HSPC117 were generated to perform immuno-precipitations. Fluted FLAG-Archease was assayed for tRNA ligation in parallel with FLAG-HSPC117, which contains the entire tRNA ligase complex. […] RNA ligase activity was only detectable in reactions containing affinity-purified RNA ligase complex but not FLAG-tagged Archease (FIG. 4B).

The next series addresses T6, ASW (human, UniProt Q9BVC5 1-232, limits assumed).
T6 construct: Endogenous protein that co-purifies from cell extract
T6 sequence (looked up): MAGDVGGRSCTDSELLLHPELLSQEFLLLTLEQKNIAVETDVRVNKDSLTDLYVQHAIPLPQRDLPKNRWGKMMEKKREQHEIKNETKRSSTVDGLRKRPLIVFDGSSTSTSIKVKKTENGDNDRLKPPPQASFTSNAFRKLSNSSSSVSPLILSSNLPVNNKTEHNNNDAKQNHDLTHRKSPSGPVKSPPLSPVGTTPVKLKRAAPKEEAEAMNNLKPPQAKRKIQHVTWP
Described as above. The method, then: as §1, §2

The series “CGI-99” concerns the target B4. The description is as above. Here is the method: as §1, §2
Series [6] deals with B1. The experiment in a line: FLAG affinity purification, co-purifying proteins on a gel (FIG. 1A).
Series [7] deals with B1. The experiment in a line: FLAG affinity purification at 150 mM NaCl, Coomassie stained gel (FIG. 4A). The method, then:
as §1, §2

Take B1: the “ligation of Xbp1 RNA minimal substrates” value in series [1], in [2] and in [3] was “Addition of recombinant wild-type Archease but not its mutagenized versions strongly stimulated ligation of Xbp1 RNA minimal substrates” throughout. Moreover, the “ligation activity of affinity purified human tRNA ligase complex (pre-cleaved tRNA substrates, linear intron)” value in series [3] is listed as “addition of recombinant Archease boosts ligation activity to a great extent (including circularization of the intron)”. Further, the binding result with DDX1 [4] is given as “binds”.

B2: FLAG-DDX1 (protein)
chain: MAAFSEMGVMPEIAQAVEEMDWLLPTDIQAESIPLILGGGDVLMAAETGSGKTGAFSIPVIQIVYETLKDQQEGKKGKTTIKTGASVLNKWQMNPYDRGSAFAIGSDGLCCQSREVKEWHGCRATKGLMKGKHYYEVSCHDQGLCRVGWSTMQASLDLGTDKFGFGFGGTGKKSHNKQFDNYGEEFTMHDTIGCYLDIDKGHVKFSKNGKDLGLAFEIPPHMKNQALFPACVLKNAELKFNFGEEEFKFPPKDGFVALSKAPDGYIVKSQHSGNAQVTQTKFLPNAPKALIVEPSRELAEQTLNNIKQFKKYIDNPKLRELLIIGGVAARDQLSVLENGVDIVVGTPGRLDDLVSTGKLNLSQVRFLVLDEADGLLSQGYSDFINRMHNQIPQVTSDGKRLQVIVCSATLHSFDVKKLSEKIMHFPTWVDLKGEDSVPDTVHHVVVPVNPKTDRLWERLGKSHIRTDDVHAKDNTRPGANSPEMWSEAIKILKGEYAVRAIKEHKMDQAIIFCRTKIDCDNLEQYFIQQGGGPDKKGHQFSCVCLHGDRKPHERKQNLERFKKGDVRFLICTDVAARGIDIHGVPYVINVTLPDEKQNYVHRIGRVGRAERMGLAISLVATEKEKVWYHVCSSRGKGCYNTRLKEDGGCTIWYNEMQLLSEIEEHLNCTISQVEPDIKVPVDEFDGKVTYGQKRAAGGGSYKGHVDILAPTVQELAALEKEAQTSFLHLGYLPNQLFRTF
Turning to B2, the “Xbp1 ligation assay using FLAG-IPs” value with HSPC117, Q9Y3I0 is “ligation activity in FLAG-HSPC117 and FLAG-DDX1 IPs were observed”.

B3: FLAG-tagged Archease (other)
chain: MAQEEEDVRDYNLTEEQKAIKAKYPPVNRKYEYLDHTADVQLHAWGDTLEEAFEQCAMAMFGYMTDTGTVEPLQTVEVETQGDDLQSLLFHFLDEWLYKFSADEFFIPREVKVLSIDQRNFKLRSIGWGEEFSLSKHPQGTEVKAITYSAMQVYNEENPEVFVIIDI
notes: also called FLAG-Archease; not shown: FLAG tag
In the case of B3, the binding result in the series with DDX1 [5], with ASW and with CGI-99 was “no binding” throughout.
B4: the binding result in the series with FLAG-tagged HSPC117 [6] is “binds”.

B5: Archease (other)
chain: AQEEEDVRDYNLTEEQKAIKAKYPPVNRKYEYLDHTADVQLHAWGDTLEEAFEQCAMAMFGYMTDTGTVEPLQTVEVETQGDDLQSLLFHFLDEWLYKFSADEFFIPREVKVLSIDQRNFKLRSIGWGEEFSLSKHPQGTEVKAITYSAMQVYNEENPEVFVIIDI
notes: Endogenous untagged Archease in the cells from which FLAG-HSPC117 was purified
As to B5, in the series with FLAG-tagged HSPC117 [7], the binding result is listed as “no binding”.
